According to patent publication US20060281673A1, “Novel peptide inhibitor of hiv fusion that disrupts the internal trimeric coiled-coil of gp41” (priority 2003, published 2006):

Biological target: pre-hairpin intermediate of gp41 (HIV-1 Env on effector cells) (HIV-1) (UniProt P03377)
Assay: cell-based or functional assay

With N36 peptide the IC50, inhibition of HIV Env-mediated cell fusion (vaccinia virus-based reporter gene assay) was 16 µM.
